From the DeepSol protein solubility set come the findings set out here.

The data set can be described thus: soluble on expression in E. coli; label from the status in PepcDB or PDB records.
With “MGSDKIHHHHHHMIAKIIMGGGKMIKRVKTGIPGMDEILHGGIPERNIVLISGGPGTGKTIFSQQFIWNGLQMGEPGIYVALEEHPVQVKKNMEVFGWNVDPFEKEGKFAIVDAFTGGIGEYAEKEKYVVRDIDDVRELAEVLKRAVRETQAKRVVIDSVTTLYITKPAMARSIIFQLKRILSGLGCTSLFVSQVSVTEKGFGGPGVEHGVDGIIRLDLDEIDGELKRSLIVWKMRGTSHSMRRHPFEITDKGIVIYPSEGGEGR”, the “soluble on expression in E. coli” value was “not soluble”.
“MSLEVPLLEVLLYTDGSVTRILERFFEEVTIDPLETRKLKVEGREARLLGVPDGDTVYVRRVVIKVDGRPAILATSLARPDNLPGRLRRLVLQSRKPLGKMIEELRLETRREILRVEEARPSPEDEEILDVSVPKIPWREYLVYHRRTPMLLIRERFNPEVLGREGEGHHHHHH”: the “soluble on expression in E. coli” value is “not soluble”.
Consider “MNGGSSIKVLGLVGSPKVDGNTAKMVDAILEGAAENGAETVIYNLASLDIKGCDACHRCQETGCCAIDDDMQELYRQIEEADAVVLGSPVYMWQMTAQTKLLIDRMTAFLKPNFSSRLDHKKLILVFTQGIPDRDAFNSYFEYTAGVLYYLGFDVLETIVAAGTDNLEVAFRPRLLEKSRELGKLISASNPVSPRYRRALEHHHHHH”, for which the “soluble on expression in E. coli” value is recorded as “not soluble”.
For the sequence “MPVGRREQIVDCRSVMGLGEGGGLAQRGTFAEALKNDVVVVAMSPGRRHITKPVCEITYGIREAGIQTSVLVLNAGSGIPHDAPRGALGSTFGIKPEEAEQINRHKLCVVHFGNVISHIVYKAGLLLKYVEIPTIIVCQAPVDMEDLAKYGIKTRDVMPLEPKTKGTVVDIVTGVIRGESCPQTKIDEVIRKIKLHLNLNLEHHHHHH”, the “soluble on expression in E. coli” value is given as “soluble”.
As for “MNADEWMTTFRENIAQTWQQPEHYDLYIPAITWHARFAYDKEKTDRYNERPWGGGFGLSRWDEKGNWHGLYAMAFKDSWNKWEPIAGYGWESTWRPLADENFHLGLGFTAGVTARDNWNYIPLPVLLPLASVGYGPVTFQMTYIPGTYNNGNVYFAWMRFQFL”, the entry is “soluble”; as for “MGSDKIHHHHHHMQGIAFQDAYPDDLSHCYGCGRNNEQGHQLKSYWRGEQTIAHFMPKPFHTAIPGFVYGGLIASLIDCHGTGSASAAAQRALEQAGEQLDEPPRFVTAALNIDYLAPTPMGVELELVGEIKEVKPRKVVVEIALSADGKLCARGHMVAVKMPETMAATSA”, “not soluble”.
With “MSRDGSVAPKERINIRYVPATGDTQEDVELPLSMMVVGDFTARADETPIEERTPINIDKDNFNDVLEGMSPNVKVNVENRLSDEEGAQIGVDLTFQNMKDFSPEAIAKSVPELNSLLELREALVALKGPLGNVPAFRKKIASVLQDEEARKKLLDELSIGNDQDAKEE”, the “soluble on expression in E. coli” value is on record as “soluble”.
Regarding “MGSSHHHHHHSSGRENLYFQGEYDYTDFINYYDKFKVIVYNVLKKLPLNDEIRKPVIEYYLNCIDYNVKKGKHIRGKILVLISSLSSAYSNIKRDSIYLLGWVVEAIQALILIADDIMDSGKFRRGAPCWYIVHGQSNAINDIFFLKMLSLSLIFELSSVFGNDIVMKIQKIYNESIFFTVLGQHLDLSYFDLSKADKISERYFSMVEMKTSRYTFYMPVFFGLTLSEIQVSSAQLNLIEAILYKLGEFYQVHNDVSDYLFNDSNADDICRFKLTWPLQKSFEIADEEMKLKISENYGKNSSLVKDCYNLLKINEHYLEYQRNALDYLIKLVKDITDDSLQKVFIHLIHQISELITNSRSNADSNNSL”, the “soluble on expression in E. coli” value is given as “soluble”.
Regarding “AIAAQKISEAHEHIAKAEKYLKTSFMKWKPDYDSAASEYAKAAVAFKNAKQLEQAKDAYLQEAEAHANNRSLFHAAKAFEQAGMMLKDLQRMPEAVQYIEKASVMYVENGTPDTAAMALDRAGKLMEPLDLSKAVHLYQQAAAVFENEERLRQAAELIGKASRLLVRQQKFDEAAASLQKEKSMYKEMENYPTCYKKCIAQVLVQLHRADYVAAQKCVRESYSIPGFSGSEDCAALEDLLQAYDEQDEEQLLRVCRSPLVTYMDNDYAKLAISLKVPGGGGGKKKPSASASAQPQEEEDDEYAGGLC”, the “soluble on expression in E. coli” value was “soluble”.
With “MGSDKIHHHHHHLIRGLYTAGAGMMLQMARQDVVANNLANVNTSGFKKNTAVAKAFPDMLISRLGECKEDKQGQLKVQSPVVIGRLGTGASISGIYTDFDNNNLKKTDSPCDLAITGAGYFVVQTPEGQRFTRCGEFKINSEGILTTNSGYPVLDSNDSPITIEGEFLIDEQGNINVDGENITRLKIVNFNDLQILERLGDNLLNSPEEPYVMERPEMLQGYIEQSNVNAVKEMVTLISVVRAYESLQKMVQAEDEIMGQAIDKVGSIN”, the “soluble on expression in E. coli” value is recorded as “not soluble”.
For the sequence “SVHPALEFSDCYSDSPDFRERLKCYENELEKTNKFLKDVIKDGNNVINTFKEYSLAVQKFSQTLQSFQFDFIGDTLTDDEMNIAESFREFAGLLQDVEEARMMLVQNASDLLIKPLEKFRKEQIGVTKERRKKFEKESEKYYSQLDKHVNLSSKKKETQLQEADEQLDKERQAFYESSVEYVYQIQQVQEKKKFDVVEPVLAFLQSILTLNNLTVEMYTFRNKGTKCNTGEIPFQKVQFCTIQVDISTFMVHFCTFKLYFCTFKIP”, the “soluble on expression in E. coli” value was “soluble”.
Regarding “SLFARITFYPSLFYNVMMEKITARHWYDRIDENVILGALPFRSVAQEMVQKENIKAVVSMNEDYELWAFSNNKARWAKLGVEFLQLETTDIFESPCQEKLWKGVNFMNRFLPANDRMALLPAAPGELAEPGTIYVHSKAGRTRSATLVGCYLIMKNGWSPEQAVEHMRQCRPHILLRSKQWEALRLFHQTKCPPPK”, the “soluble on expression in E. coli” value was “soluble”.
As for “RELLMMTPSKELCQVVGNDVLEIEKVSDHQLKLAGITKVGQELRVNIDLHVDDDMIELDTLEQTRKQLTTRLSKHRFKLQLNLNVANC”, the “soluble on expression in E. coli” value is reported as “not soluble”.
Consider “MAEANPRRGKMRFRRNAASFPGNLHLVLVLRPTSFLQRTFTDIGFWFSQEDFMPKLPVVMLSSVSDLLTYIDDKQLTPELGGTLQYCHSEWIIFRNAIENFALTVKEMAQMLQSFGTELAETELPDDIPSIEEILAIRAERYHLLKNDITAVTKEGKILLTNLEVPDTEGAVSSRLECHRQISGDWQTINKLLTQVHDMETAFDGFWEKHQLKMEQYLQLWKFEQDFQQLVTEVEFLLNQQAELADVTGTIAQVKQKIKKLENLDENSQELLSKAQFVILHGHKLAANHHYALDLICQRCNELRYLSDILVNEIKAKRIQLSRTFKMHKLLQQARQCCDEGECLLANQEIDKFQSKEDAQKALQDIENFLEMALPFINYEPETLQYEFDVILSPELKVQMKTIQLKLENIRSIFENQQAGFRNLADKHVRPIQFVVPTPENLVTSGTPFFSSKQGKKTWRQNQSNLKIEVVPDCQEKRSSGPSSSLDNGNSLDVLKNHVLNELIQTERVYVRELYTVLLGYRAEMDNPEMFDLMPPLLRNKKDILFGNMAEIYEFHNDIFLSSLENCAHAPERVGPCFLERKDDFQMYAKYCQNKPRSETIWRKYSECAFFQECQRKLKHRLRLDSYLLKPVQRITKYQLLLKELLKYSKDCEGSALLKKALDAMLDLLKSVNDSMHQIAINGYIGNLNELGKMIMQGGFSVWIGHKKGATKMKDLARFKPMQRHLFLYEKAIVFCKRRVESGEGSDRYPSYSFKHCWKMDEVGITEYVKGDNRKFEIWYGEKEEVYIVQASNVDVKMTWLKEIRNILLKQQELLTVKKRKQQDQLTERDKFQISLQQNDEKQQGAFISTEETELEHTSTVVEVCEAIASVQAEANTVWTEASQSAEISEEPAEWSSNYFYPTYDENEEENRPLMRPVSEMALLY”, for which the “soluble on expression in E. coli” value is given as “soluble”.
Regarding “MQTEHVILLNAQGVPTGTLEKYAAHTADTRLHLAFSSWLFNAKGQLLVTRRALSKKAWPGVWTNSVCGHPQLGESNEDAVIRRCRYELGVEITPPESIYPDFRARATDPSGIVENEVCPVFAARTTSALQINDDEVMDYQWCDLADVLHGIDATPWAFSPWMVMQATNREARKRLSAFTQLKLEHHHHHH”, the “soluble on expression in E. coli” value is recorded as “soluble”.
As for “MLKSVQGLWKDFFGIRDDGRKREYGSLDEVRKRSALRSRRKQMRPTGKSVLKRPRKVTDRKTEEKIRTNRRKTPKRRLTKIFQTIRDVFSNDNENMSKMQNVCGDMTRILKKRSQGRPSYMDTDTAKSRILRSDAFKRKISELKYNKQRISELRSGSSDGSSGKDRNQSLYLDREILLQRQIKKRDEKIKALESKLQSLQEALNYSNEKYRILEDLLDSSNIHPSYTKSRRTMSNLARENDEIKPLKIDLSPSPIRRTNSLFTSSPMKTYNRDGNIPEMQPLQENISPACPTPPYRSRETEKEDETLSPISVDFSSYLS”, the entry is “soluble”.
On to “MGSDKIHHHHHHMSFSGFEQFIGLVANRYGKPGTPHSEEQHSDYEAGTVLLGSETWHIRTARVTPTKPGAFVAFWMRNEQGEICPFDSSEACAGLLIFVQDESNFGVFRFTREQLEQQGITRSTKRPGKRGFRVYPSWSGNLNAQAKKTQAIQTPSFELLQ”, for which the “soluble on expression in E. coli” value was “not soluble”.
As for “MSNNEIVFVTGNANKLKEVQSILTQEVDNNNKTIHLINEALDLEELQDTDLNAIALAKGKQAVAALGKGKPVFVEDTALRFDEFNGLPGAYIKWFLKSMGLEKIVKMLEPFENKNAEAVTTICFADSRGEYHFFQGITRGKIVPSRGPTTFGWDSIFEPFDSHGLTYAEMSKDAKNAISHRGKAFAQFKEYLYQNDF”, the entry is “not soluble”; as for “MSDLHTKLGSGMNKLQEGIEQGKMKLQVAQEIAQLKKGMQVQMQKKAEVLLEVGQQVYVQLRGSGVNEASLKEMIAPVQEFDVAIYQARKRIVELQKQQGEKATCECGGPLSINDKFCGSCGKPNPMLTVENEGETVNCISCNEHIDKNSTYCPVCGIKQSGE”, “not soluble”.
In the case of “MINITSMRDSFGDWAEKFLKSKEADGVSVSQLNSYKNYCRNHLSPLYMKSLSEILPADIQSIINETKLAKNTLKAIRNTASQIFRLAIENRAIDFNPADYVRIPKIAPEFHRDALEHHHHHH”, the “soluble on expression in E. coli” value is “soluble”.
With “MAKTITKDSFFHSRLQQFVANSLFPAGAGDWYKNKGYGKKGEVDDEAPFRDFVEKQKTDKKSHYYKEFQGLDLSLKKVKTKLVSGESCQLEVMKCQPESNEPKKPGTGKHIVYFPGANTYYQACFRDISTACKETGATVHAFNFPGTGLSSGKVREANDLINAGISVVSSLIKQGVHPDDIILQGDCYGASIALEVKKQLEDQADIKVRAIMNNVFKSFKAAVCDMITQSPWLPNILKSIVKRLLEFTGWHVTPGKKYKHADPYQCHIQHLGDQTLESSTLSGKVSKYHHEIQTGQTKSQKRAPITDTCPEEYRKDRDELDRKHYVRVKESAKERLASKFGVDKFGRVNAHFADLCELEMLDGQSVYQGFVNDYIARSNAYIEKHPQKGIKEVQDDLRKLHYLQPADSIEITEDEAQDFNTVVDLITEEQQLRHDRFNDNTIGKSISM”, the “soluble on expression in E. coli” value is listed as “not soluble”.
As for “HGDHMHNHDTKMDTMSKDMMSMEKIVVPVQQLDPQNGNKDVGTVEITESAYGLVFTPKLHDLAHGLHGFHIHEKPSCEPKEKDGKLVAGLGAGGHWDPKQTQKHGYPWSDDAHMGDLPALFVMHDGSATTPVLAPRLKKLAEVKGHSLMIHAGGDNHSDHPAPLGGGGPRMACGVIK”, the “soluble on expression in E. coli” value is “soluble”.
Take “SAEGDYYTLGNRQRIPRDPFREQSLASRFMDDDFGLPPFPNELSMDWPGWARPRLSHRLDAPWTGSLRSGFPRASMSSPQGFSSVYTESPRRASAPPTDSDEPWKVCVNVHSFKPEELNVKTKDGFVEVSGKHEEKQDEGGIVTKNFTKKIQIPLDVDPVTVFASLSPEGVLIIEARQTPPYYLYSNEMPAESMEEPEARPQEPSMTSTTTFEARE”: the “soluble on expression in E. coli” value is reported as “soluble”.
As for “MAATNHAQAIKKDTKDFITTALLQMLAKEKLQALTVSQICKRAGVSRMAFYRNFNGLEQILYEYYQPKIGAMFDTIRENPQFSAKFDSQLKFFNTFGDDIILSIDRGFEPIIQQIFKEEIEKFYFKDNDEHWTTFMSAGVYAIWRKWLLDGRQKPLKEIMDFFKQFDMIKGNV”, the “soluble on expression in E. coli” value is on record as “not soluble”.
